Experimental data reported in paper PMC6804253, “Predicting and Experimentally Validating Hot-Spot Residues at Protein–Protein Interfaces” (ACS Chemical Biology, 2019).
Like-named read-outs stand apart in the source and are kept apart here.

Key:
[1] = tested on: PPIs of the SKEMPI data set (by PDBID); assay: SKEMPI experimental ΔΔG, single mutations to alanine; assay type: binding; conditions: for sk_class: class of the SKEMPI experimental ΔΔG
[2] = tested on: PPIs of the SKEMPI data set (by PDBID); conditions: single mutation to alanine, ref SKEMPI, cited from earlier work; for sk_ddG_kJ (SKEMPI experimental ΔΔG, mutation to alanine): sheet sortedByGroup, r_group DERKH; for sk_ddG_kJ: SKEMPI experimental ΔΔG of binding
[3] = class by ΔΔG threshold 4.184 kJ/mol, ref SKEMPI

Molecule	sk_class ([1]; ref SKEMPI)	sk_ddG_kJ ([2]; complex by PDBID)	further results
1A4Y HB13A	–	–	sk_class (class of the SKEMPI experimental ΔΔG) [1, 3]: Neutral (neutral (little effect) 4.184 kJ/mol < ΔΔG > −4.184 kJ/mol); sk_ddG_kJ (SKEMPI experimental ΔΔG, mutation to alanine) ([2]; PPI given by PDBID): -1.42 kJ
1A22 RA19A	–	–	sk_class (class of the SKEMPI experimental ΔΔG) [1, 3]: Neutral (neutral (little effect) 4.184 kJ/mol < ΔΔG > −4.184 kJ/mol); sk_ddG_kJ (SKEMPI experimental ΔΔG, mutation to alanine) ([2]; PPI given by PDBID): 0.21 kJ
1A22 SA62A	–	–	sk_class [1]: Neutral (neutral (little effect) 4.184 kJ/mol < ΔΔG > −4.184 kJ/mol); sk_ddG_kJ (SKEMPI experimental ΔΔG) ([2]; complex given by PDBID, mutation by mut_pdb): 0.42 kJ
1A4Y HB8A	–	–	sk_class (class of the SKEMPI experimental ΔΔG) [1, 3]: Neutral (neutral (little effect) 4.184 kJ/mol < ΔΔG > −4.184 kJ/mol); sk_ddG_kJ (SKEMPI experimental ΔΔG, mutation to alanine) ([2]; PPI given by PDBID): 3.77 kJ
1GC1 RC59A	–	–	sk_class (class of the SKEMPI experimental ΔΔG) ([1]; class by the 4.184 kJ/mol threshold, r_group DERKH): Positive (positive (a hot residue) ΔΔG ≥ 4.184 kJ/mol); sk_ddG_kJ (SKEMPI experimental ΔΔG, mutation to alanine) ([2]; complex by PDBID): 4.94 kJ
1A4Y EB108A	Neutral (neutral (little effect) 4.184 kJ/mol < ΔΔG > −4.184 kJ/mol)	-1.34 kJ	–
1DAN RU135A (protein, UniProt P13726 33-251, looked up, variant R135A, extracellular domain) extracellular domain: SGTTNTVAAYNLTWKSTNFKTILEWEPKPVNQVYTVQISTKSGDWKSKCFYTTDTECDLTDEIVKDVKQTYLARVFSYPAGNVESTGSAGEPLYENSPEFTPYLETNLGQPTIQSFEQVGTKVNVTVEDERTLVARNNTFLSLRDVFGKDLIYTLYYWKSSSSGKKTAKTNTNEFLIDVDKGENYCFSVQAVIPSRTVNRKSTDSPVECMGQEKGEFRE	Neutral (neutral (little effect) 4.184 kJ/mol < ΔΔG > −4.184 kJ/mol)	2.18 kJ	–
1DAN EU208A (protein, UniProt P13726 33-251, looked up, variant E208A, extracellular domain) extracellular domain: SGTTNTVAAYNLTWKSTNFKTILEWEPKPVNQVYTVQISTKSGDWKSKCFYTTDTECDLTDEIVKDVKQTYLARVFSYPAGNVESTGSAGEPLYENSPEFTPYLETNLGQPTIQSFEQVGTKVNVTVEDERTLVRRNNTFLSLRDVFGKDLIYTLYYWKSSSSGKKTAKTNTNEFLIDVDKGENYCFSVQAVIPSRTVNRKSTDSPVACMGQEKGEFRE	Neutral (neutral (little effect) 4.184 kJ/mol < ΔΔG > −4.184 kJ/mol)	0.00 kJ	–
1DAN RU136A (protein, UniProt P13726 33-251, looked up, variant R136A, extracellular domain) extracellular domain: SGTTNTVAAYNLTWKSTNFKTILEWEPKPVNQVYTVQISTKSGDWKSKCFYTTDTECDLTDEIVKDVKQTYLARVFSYPAGNVESTGSAGEPLYENSPEFTPYLETNLGQPTIQSFEQVGTKVNVTVEDERTLVRANNTFLSLRDVFGKDLIYTLYYWKSSSSGKKTAKTNTNEFLIDVDKGENYCFSVQAVIPSRTVNRKSTDSPVECMGQEKGEFRE	Neutral (neutral (little effect) 4.184 kJ/mol < ΔΔG > −4.184 kJ/mol)	-0.25 kJ	–
1DAN DU145A (protein, UniProt P13726 33-251, looked up, variant D145A, extracellular domain) extracellular domain: SGTTNTVAAYNLTWKSTNFKTILEWEPKPVNQVYTVQISTKSGDWKSKCFYTTDTECDLTDEIVKDVKQTYLARVFSYPAGNVESTGSAGEPLYENSPEFTPYLETNLGQPTIQSFEQVGTKVNVTVEDERTLVRRNNTFLSLRAVFGKDLIYTLYYWKSSSSGKKTAKTNTNEFLIDVDKGENYCFSVQAVIPSRTVNRKSTDSPVECMGQEKGEFRE	Neutral (neutral (little effect) 4.184 kJ/mol < ΔΔG > −4.184 kJ/mol)	-0.04 kJ	–
1DAN RU196A (protein, UniProt P13726 33-251, looked up, variant R196A, extracellular domain) extracellular domain: SGTTNTVAAYNLTWKSTNFKTILEWEPKPVNQVYTVQISTKSGDWKSKCFYTTDTECDLTDEIVKDVKQTYLARVFSYPAGNVESTGSAGEPLYENSPEFTPYLETNLGQPTIQSFEQVGTKVNVTVEDERTLVRRNNTFLSLRDVFGKDLIYTLYYWKSSSSGKKTAKTNTNEFLIDVDKGENYCFSVQAVIPSATVNRKSTDSPVECMGQEKGEFRE	Neutral (neutral (little effect) 4.184 kJ/mol < ΔΔG > −4.184 kJ/mol)	1.92 kJ	–
1DAN KU169A (protein, UniProt P13726 33-251, looked up, variant K169A, extracellular domain) extracellular domain: SGTTNTVAAYNLTWKSTNFKTILEWEPKPVNQVYTVQISTKSGDWKSKCFYTTDTECDLTDEIVKDVKQTYLARVFSYPAGNVESTGSAGEPLYENSPEFTPYLETNLGQPTIQSFEQVGTKVNVTVEDERTLVRRNNTFLSLRDVFGKDLIYTLYYWKSSSSGKKTAATNTNEFLIDVDKGENYCFSVQAVIPSRTVNRKSTDSPVECMGQEKGEFRE	Neutral (neutral (little effect) 4.184 kJ/mol < ΔΔG > −4.184 kJ/mol)	0.50 kJ	–
1DAN RU144A (protein, UniProt P13726 33-251, looked up, variant R144A, extracellular domain) extracellular domain: SGTTNTVAAYNLTWKSTNFKTILEWEPKPVNQVYTVQISTKSGDWKSKCFYTTDTECDLTDEIVKDVKQTYLARVFSYPAGNVESTGSAGEPLYENSPEFTPYLETNLGQPTIQSFEQVGTKVNVTVEDERTLVRRNNTFLSLADVFGKDLIYTLYYWKSSSSGKKTAKTNTNEFLIDVDKGENYCFSVQAVIPSRTVNRKSTDSPVECMGQEKGEFRE	Neutral (neutral (little effect) 4.184 kJ/mol < ΔΔG > −4.184 kJ/mol)	0.00 kJ	–
1DFJ EI202A (protein, UniProt P10775 1-456, looked up, variant E202A) Ribonuclease inhibitor: MNLDIHCEQLSDARWTELLPLLQQYEVVRLDDCGLTEEHCKDIGSALRANPSLTELCLRTNELGDAGVHLVLQGLQSPTCKIQKLSLQNCSLTEAGCGVLPSTLRSLPTLRELHLSDNPLGDAGLRLLCEGLLDPQCHLEKLQLEYCRLTAASCEPLASVLRATRALKELTVSNNDIGEAGARVLGQGLADSACQLETLRLANCGLTPANCKDLCGIVASQASLRELDLGSNGLGDAGIAELCPGLLSPASRLKTLWLWECDITASGCRDLCRVLQAKETLKELSLAGNKLGDEGARLLCESLLQPGCQLESLWVKSCSLTAACCQHVSLMLTQNKHLLELQLSSNKLGDSGIQELCQALSQPGTTLRVLCLGDCEVTNSGCSSLASLLLANRSLRELDLSNNCVGDPGVLQLLGSLEQPGCALEQLVLYDTYWTEEVEDRLQALEGSKPGLRVIS	Positive (positive (a hot residue) ΔΔG ≥ 4.184 kJ/mol)	4.27 kJ	–
1DFJ EI340A (protein, UniProt P10775 1-456, looked up, variant E340A) Ribonuclease inhibitor: MNLDIHCEQLSDARWTELLPLLQQYEVVRLDDCGLTEEHCKDIGSALRANPSLTELCLRTNELGDAGVHLVLQGLQSPTCKIQKLSLQNCSLTEAGCGVLPSTLRSLPTLRELHLSDNPLGDAGLRLLCEGLLDPQCHLEKLQLEYCRLTAASCEPLASVLRATRALKELTVSNNDIGEAGARVLGQGLADSACQLETLRLENCGLTPANCKDLCGIVASQASLRELDLGSNGLGDAGIAELCPGLLSPASRLKTLWLWECDITASGCRDLCRVLQAKETLKELSLAGNKLGDEGARLLCESLLQPGCQLESLWVKSCSLTAACCQHVSLMLTQNKHLLALQLSSNKLGDSGIQELCQALSQPGTTLRVLCLGDCEVTNSGCSSLASLLLANRSLRELDLSNNCVGDPGVLQLLGSLEQPGCALEQLVLYDTYWTEEVEDRLQALEGSKPGLRVIS	Positive (positive (a hot residue) ΔΔG ≥ 4.184 kJ/mol)	6.57 kJ	–
1DFJ EI397A (protein, UniProt P10775 1-456, looked up, variant E397A) Ribonuclease inhibitor: MNLDIHCEQLSDARWTELLPLLQQYEVVRLDDCGLTEEHCKDIGSALRANPSLTELCLRTNELGDAGVHLVLQGLQSPTCKIQKLSLQNCSLTEAGCGVLPSTLRSLPTLRELHLSDNPLGDAGLRLLCEGLLDPQCHLEKLQLEYCRLTAASCEPLASVLRATRALKELTVSNNDIGEAGARVLGQGLADSACQLETLRLENCGLTPANCKDLCGIVASQASLRELDLGSNGLGDAGIAELCPGLLSPASRLKTLWLWECDITASGCRDLCRVLQAKETLKELSLAGNKLGDEGARLLCESLLQPGCQLESLWVKSCSLTAACCQHVSLMLTQNKHLLELQLSSNKLGDSGIQELCQALSQPGTTLRVLCLGDCEVTNSGCSSLASLLLANRSLRALDLSNNCVGDPGVLQLLGSLEQPGCALEQLVLYDTYWTEEVEDRLQALEGSKPGLRVIS	Positive (positive (a hot residue) ΔΔG ≥ 4.184 kJ/mol)	5.48 kJ	–
1DFJ KI316A (protein, UniProt P10775 1-456, looked up, variant K316A) Ribonuclease inhibitor: MNLDIHCEQLSDARWTELLPLLQQYEVVRLDDCGLTEEHCKDIGSALRANPSLTELCLRTNELGDAGVHLVLQGLQSPTCKIQKLSLQNCSLTEAGCGVLPSTLRSLPTLRELHLSDNPLGDAGLRLLCEGLLDPQCHLEKLQLEYCRLTAASCEPLASVLRATRALKELTVSNNDIGEAGARVLGQGLADSACQLETLRLENCGLTPANCKDLCGIVASQASLRELDLGSNGLGDAGIAELCPGLLSPASRLKTLWLWECDITASGCRDLCRVLQAKETLKELSLAGNKLGDEGARLLCESLLQPGCQLESLWVASCSLTAACCQHVSLMLTQNKHLLELQLSSNKLGDSGIQELCQALSQPGTTLRVLCLGDCEVTNSGCSSLASLLLANRSLRELDLSNNCVGDPGVLQLLGSLEQPGCALEQLVLYDTYWTEEVEDRLQALEGSKPGLRVIS	Positive (positive (a hot residue) ΔΔG ≥ 4.184 kJ/mol)	5.44 kJ	–
1DFJ EI283A (protein, UniProt P10775 1-456, looked up, variant E283A) Ribonuclease inhibitor: MNLDIHCEQLSDARWTELLPLLQQYEVVRLDDCGLTEEHCKDIGSALRANPSLTELCLRTNELGDAGVHLVLQGLQSPTCKIQKLSLQNCSLTEAGCGVLPSTLRSLPTLRELHLSDNPLGDAGLRLLCEGLLDPQCHLEKLQLEYCRLTAASCEPLASVLRATRALKELTVSNNDIGEAGARVLGQGLADSACQLETLRLENCGLTPANCKDLCGIVASQASLRELDLGSNGLGDAGIAELCPGLLSPASRLKTLWLWECDITASGCRDLCRVLQAKETLKALSLAGNKLGDEGARLLCESLLQPGCQLESLWVKSCSLTAACCQHVSLMLTQNKHLLELQLSSNKLGDSGIQELCQALSQPGTTLRVLCLGDCEVTNSGCSSLASLLLANRSLRELDLSNNCVGDPGVLQLLGSLEQPGCALEQLVLYDTYWTEEVEDRLQALEGSKPGLRVIS	Positive (positive (a hot residue) ΔΔG ≥ 4.184 kJ/mol)	5.52 kJ	–
